This passage reports fraction of ribosomes decorated with Ebp1 results from PMC7005732.

The target in assay [1] is Human non-translating 80S ribosome, puromycin-treated, purified from HeLa cells (human (endogenous in HeLa)) (UniProt P62750). As to the kind of experiment: cryo-EM structure; in vivo pulled-out Ebp1-ribosome complex (dataset 1; merged with dataset 2 for the final map): 100 nM 80S ribosomes purified from HeLa cells without addition of recombinant Ebp1; occupancy estimated from computational particle sorting.

Assay [2] shares this target. In words: cryo-EM structure; in vitro reconstituted complex (dataset 2; merged with dataset 1 for the final map): 100 nM purified HeLa 80S ribosomes with an eightfold excess of recombinant Ebp1, SEC buffer (20 mM HEPES KOH pH 7.5, 5 mM Mg(OAc)2, 175 mM KOAc, 1 mM TCEP); occupancy estimated from computational particle sorting.

Consider “Endogenous Ebp1 on 80S ribosomes purified from HeLa cells (from UniProt Q9UQ80 1-394) (natural protein)”, for which the fraction of ribosomes decorated with Ebp1 in assay [1] was 25%.
In the case of “ErbB3 receptor-binding protein (Ebp1), full-length, p48 isoform, recombinant (from UniProt Q9UQ80 1-394) (natural protein)”, the fraction of ribosomes decorated with Ebp1 in assay [2] was 75%.
